IntAct's records for PubMed 23825108

Target: mmac_human MMACHC (UniProt Q9Y4U1)
Sequence (Q9Y4U1 whole entry): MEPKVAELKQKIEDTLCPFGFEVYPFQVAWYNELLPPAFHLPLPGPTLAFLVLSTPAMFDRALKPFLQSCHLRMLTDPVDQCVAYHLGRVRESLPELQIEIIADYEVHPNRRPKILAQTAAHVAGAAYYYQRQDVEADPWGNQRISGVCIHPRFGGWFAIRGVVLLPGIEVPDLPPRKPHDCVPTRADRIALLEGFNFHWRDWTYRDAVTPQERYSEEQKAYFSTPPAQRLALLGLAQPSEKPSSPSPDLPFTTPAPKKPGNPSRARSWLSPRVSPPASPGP

Sequence of Methionine synthase (Homo sapiens), Q99707 P1173L (Q99707 whole entry P1173L): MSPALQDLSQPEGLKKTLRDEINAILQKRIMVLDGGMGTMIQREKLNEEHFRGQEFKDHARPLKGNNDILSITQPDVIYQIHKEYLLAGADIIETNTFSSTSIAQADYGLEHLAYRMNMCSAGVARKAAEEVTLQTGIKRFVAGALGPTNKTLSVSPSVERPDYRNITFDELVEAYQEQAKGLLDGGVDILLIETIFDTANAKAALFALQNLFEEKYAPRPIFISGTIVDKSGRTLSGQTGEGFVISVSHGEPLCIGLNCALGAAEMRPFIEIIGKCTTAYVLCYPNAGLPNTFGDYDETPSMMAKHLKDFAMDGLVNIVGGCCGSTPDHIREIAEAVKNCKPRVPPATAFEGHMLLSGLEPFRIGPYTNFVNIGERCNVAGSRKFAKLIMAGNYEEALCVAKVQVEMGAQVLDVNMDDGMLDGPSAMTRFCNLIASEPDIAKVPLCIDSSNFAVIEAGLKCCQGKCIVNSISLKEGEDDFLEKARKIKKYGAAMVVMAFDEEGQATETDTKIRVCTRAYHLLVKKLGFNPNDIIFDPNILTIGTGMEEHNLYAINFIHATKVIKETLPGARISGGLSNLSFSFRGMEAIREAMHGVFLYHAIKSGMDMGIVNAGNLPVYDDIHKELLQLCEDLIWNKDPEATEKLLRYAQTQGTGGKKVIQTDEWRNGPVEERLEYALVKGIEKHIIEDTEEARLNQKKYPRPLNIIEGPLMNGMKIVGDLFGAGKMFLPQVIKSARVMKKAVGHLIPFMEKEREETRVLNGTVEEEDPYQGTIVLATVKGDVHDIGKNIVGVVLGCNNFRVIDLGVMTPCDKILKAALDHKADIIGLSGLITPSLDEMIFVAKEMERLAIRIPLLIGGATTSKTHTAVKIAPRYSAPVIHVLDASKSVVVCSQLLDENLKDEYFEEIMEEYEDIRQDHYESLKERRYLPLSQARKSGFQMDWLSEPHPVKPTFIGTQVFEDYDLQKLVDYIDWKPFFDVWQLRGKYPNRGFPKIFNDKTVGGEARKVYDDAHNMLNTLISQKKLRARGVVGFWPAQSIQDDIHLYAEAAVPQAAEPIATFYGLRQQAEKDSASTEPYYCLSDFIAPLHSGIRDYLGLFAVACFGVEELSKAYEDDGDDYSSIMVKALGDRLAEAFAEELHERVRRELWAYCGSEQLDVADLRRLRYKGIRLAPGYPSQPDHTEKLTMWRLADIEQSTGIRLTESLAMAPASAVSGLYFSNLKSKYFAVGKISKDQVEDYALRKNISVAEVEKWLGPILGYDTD

- effect of a mutation on the interaction: increasing interaction strength
Substance: Methionine synthase (Homo sapiens), Q99707 P1173L
